Columns and labels:
LOX-IMVI melanoma cells = test: Cell Titer Glo viability of melanoma cell line LOX-IMVI; type: cell-based, human; conditions: six days, antibodies 20 mg/ml, DAPT 5 μM, ± Jagged-1
Experimental: Human melanoma cell lines SK23 and LOX-IMVI were plated in medium containing 2% FBS at low density (4000 cells/well for SK23, 2500 cells/well for LOX-IMVI) in 96 well plates that were coated without (−jag-1) or with Jagged-1 ligand (+jag-1) (R&D Systems, Minneapolis, Minn.). […] An equal volume of DMSO served as the vehicle control, whereas an equal concentration of anti-gD HuB6 phage antibody served as the isotype control antibody. Cell Titer Glo assays (Promega, Madison, Wis.) were performed six days after plating. […] In FIGS. 25A and 25B, cell viability (y-axis) is expressed relative to the values from the DMSO vehicle, −jag-1 control wells.

DB DLBCL cell line = test: Growth of DB diffuse large B-cell lymphoma cell line in vitro; type: cell-based
Experimental: Diffuse large B-cell lymphoma (DLBCL) is the most common type of non-Hodgkin's lymphoma. […] (See Lee et al., Cancer Sci. 100:920-926, 2009.) However, how DLBCL cells would respond to Notch2 inhibition was not known. Therefore, we investigated the effect of anti-NRR2 on five DLBCL cell lines. The DLBCL lines listed on the right of FIG. 26 were grown in replicates for three days in wells of a 384-well plate. The cell cultures included the indicated concentrations of anti-NRR2 (referred to as “anti-Notch2” in FIGS. 26 and 27), which corresponded to three-fold serial dilutions starting at 10 μg/ml. Growth was assessed using Cell Titer Glo assays (Promega), plotted as the percentage of cell viability relative to treatment with an isotype control antibody. The data points in FIG. 26 represent average values obtained from individual wells for each cell line at the indicated antibody concentrations. […] The DB line was grown in wells of a 12-well plate, and the cultures were treated with DMSO, the gamma-secretase inhibitor DAPT, anti-gD isotype control antibody or anti-NRR2 at the indicated concentrations. Growth was assessed by counting viable cells (Vi-CELL, Beckman Coulter, Fullerton, Calif.) at days 2, 3 and 5 after inoculating and treating the cultures. Values represent the mean of measurements from three independent cultures, plus/minus the standard deviation.

Notch2 NRR = test: ELISA binding to purified Notch2 NRR proteins; conditions: purified human or mouse protein, up to highest antibody concentration tested
From the text: (§1) The N-myc-Notch transgenes were expressed under control of the inducible tet promoter; bottom row, control expression in the absence of induction with doxycycline (−Dox); top row, induced expression following addition of doxycycline (+Dox); note that the K1-CHO line endogenously expresses Notch2, which is detected by anti-NRR2 in the presence and absence of doxycycline (for example, compare panels 7 and 10).
(§2) Anti-Flag antibody was used to capture Flag-Tagged NRR protein from all four Notch receptors in a black walled, high binding plate (Greiner). NRR antibody and E25 control antibodies were bound to the NRR proteins and washed away with PBS. An Alkaline Phosphate conjugated anti-human (H+L) secondary antibody (Jackson ImmunoResearch) was used to detect bound anti-NRR and E25. Unbound secondary was washed away and AP was detected with PNPP substrate (Pierce).

[1] = system: intestinal cell differentiation; test: Histology and immunohistochemistry of mouse intestine tissue; type: in vivo; conditions: 5 mg/kg, one day after final dosing (FIGS. 15C and 24B)
From the text: (A) Total body weight change (mean+/−standard deviation) vs. time. […] Arrows mark the days of dosing. (B) Immunohistochemical analyses of small intestines. […] In each row as indicated, staining is shown for haemotoxylin and eosin (H & E), Alcian Blue for mucin and to mark secretory goblet cells, lysozyme to mark Paneth cells, Ki-67 for proliferation and Hes1 as a Notch downstream target. See FIGS. 19 and 20 for analyses of the large intestine at day 7 and of the small intestine at day 2, respectively. Bar=40 μm. (C) Comparison of Notch1- versus Notch2-specific inhibition on small intestinal cell differentiation. Small intestines from the study described in (A) were prepared for Alcian Blue and Ki-67 one day after the final dosing with α-gD, α-NRR1 or α-NRR2, as indicated. Bar=50 μm.
Formalin-fixed and paraffin-embedded mouse small intestine tissues were sectioned at 3 micron thickness. Histochemical identification of intestinal cell types was performed with Alcian blue as recommended by the manufacturer (PolyScientific). For anti-Ki67 staining, sections were pretreated with Target Retrieval Solution (S1700, DAKO), and incubated with rabbit anti-Ki67 (1:200, clone SP6, Neomarkers). Secondary goat anti-rabbit at 7.5 μg/ml (Vector labs) was detected with the Vectastain ABC Elite Kit (Vector labs). Ki67 stained sections were counterstained with Mayer's haemotoxylin. For anti-lysozyme staining, sections were processed on the Discovery XT platform (Ventana Medical Systems, Inc.) using CC1m epitope recovery conditions, OmniMap-rabbit detection and Ventana haemotoxylin II/with bluing counterstain. For HES-1 staining, anti-rat HES-1 (clone NM1, MBL, International) was followed by TSA-HRP.
The effect of inhibiting both Notch1 and Notch2 on intestinal cell fate determination was also investigated. […] The intestines were harvested and stained with H&E to reveal the crypt morphology. […] Further experimentation confirmed this observation.

[2] = target: T1, myc-Notch2 on K1-CHO cells (Homo sapiens, UniProt Q04721); test: FACS binding to K1-CHO cells expressing N-myc-Notch2; type: cell-based; conditions: doxycycline induced
T1 construct: either the Notch1 or Notch2 extracellular domain and trans-membrane domains were N-terminally myc-tagged; expressed in transfected cells; host or cells: CHO-K1 (Tet-inducible, doxycycline)
From the text: as §1
Expression plasmids were made in which either the Notch1 or Notch2 extracellular domain and trans-membrane domains were N-terminally myc-tagged and expressed under the control of a Tetracycline Response Element (TRE) upstream of a minimal CMV immediate early promoter. These plasmids were stably transfected into CHO-K1 cells (Clonetech), engineered to express a transactivator protein in the presence of Doxycycline that binds to and activates the TRE in the transfected plasmid. Cells were treated with […] doxycycline or vehicle for 48 hrs, and then stained with anti-NRR, anti-myc (9E10, Millipore) or E25 control antibodies and either goat anti-human Alexa 488 or Alexa 647 secondary antibodies (Invitrogen). After staining, cells were run on a FACScalibur machine (BD Biosciences) and 15000 events were collected and range gates were drawn to assess positively and negatively stained populations.

[3] = system: other three non-targeted receptors; test: Binding to non-targeted Notch receptors (SPR, ELISA, FACS); set-up: species or system human, mouse; conditions: ELISA and FACS
Experimental: Binding affinities of anti-Notch2 NRR antibodies were measured by Surface Plasmon Resonance (SRP) using a BIAcore™-3000 instrument. Anti-Notch2 NRR human IgGs were captured by mouse anti-human IgG coated on the CM5 sensor chip to achieve approximately 200 response units (RU). For kinetics measurements, two-fold serial dilutions of human and mouse Notch2 NRR (3.9 nM to 500 nM) were injected in PBT buffer (PBS with 0.05% Tween 20) at 25° C. with a flow rate of 30 μl/min. Association rates (kon) and dissociation rates (koff) were calculated using a simple one-to-one Langmuir binding model (BIAcore Evaluation Software version 3.2). The equilibrium dissociation constant (KD) was calculated as the ratio koff/kon.
as §2, with “(Pierce). […]” for “(Pierce).”

T1 sequence (Q04721 26-1677 limits assumed): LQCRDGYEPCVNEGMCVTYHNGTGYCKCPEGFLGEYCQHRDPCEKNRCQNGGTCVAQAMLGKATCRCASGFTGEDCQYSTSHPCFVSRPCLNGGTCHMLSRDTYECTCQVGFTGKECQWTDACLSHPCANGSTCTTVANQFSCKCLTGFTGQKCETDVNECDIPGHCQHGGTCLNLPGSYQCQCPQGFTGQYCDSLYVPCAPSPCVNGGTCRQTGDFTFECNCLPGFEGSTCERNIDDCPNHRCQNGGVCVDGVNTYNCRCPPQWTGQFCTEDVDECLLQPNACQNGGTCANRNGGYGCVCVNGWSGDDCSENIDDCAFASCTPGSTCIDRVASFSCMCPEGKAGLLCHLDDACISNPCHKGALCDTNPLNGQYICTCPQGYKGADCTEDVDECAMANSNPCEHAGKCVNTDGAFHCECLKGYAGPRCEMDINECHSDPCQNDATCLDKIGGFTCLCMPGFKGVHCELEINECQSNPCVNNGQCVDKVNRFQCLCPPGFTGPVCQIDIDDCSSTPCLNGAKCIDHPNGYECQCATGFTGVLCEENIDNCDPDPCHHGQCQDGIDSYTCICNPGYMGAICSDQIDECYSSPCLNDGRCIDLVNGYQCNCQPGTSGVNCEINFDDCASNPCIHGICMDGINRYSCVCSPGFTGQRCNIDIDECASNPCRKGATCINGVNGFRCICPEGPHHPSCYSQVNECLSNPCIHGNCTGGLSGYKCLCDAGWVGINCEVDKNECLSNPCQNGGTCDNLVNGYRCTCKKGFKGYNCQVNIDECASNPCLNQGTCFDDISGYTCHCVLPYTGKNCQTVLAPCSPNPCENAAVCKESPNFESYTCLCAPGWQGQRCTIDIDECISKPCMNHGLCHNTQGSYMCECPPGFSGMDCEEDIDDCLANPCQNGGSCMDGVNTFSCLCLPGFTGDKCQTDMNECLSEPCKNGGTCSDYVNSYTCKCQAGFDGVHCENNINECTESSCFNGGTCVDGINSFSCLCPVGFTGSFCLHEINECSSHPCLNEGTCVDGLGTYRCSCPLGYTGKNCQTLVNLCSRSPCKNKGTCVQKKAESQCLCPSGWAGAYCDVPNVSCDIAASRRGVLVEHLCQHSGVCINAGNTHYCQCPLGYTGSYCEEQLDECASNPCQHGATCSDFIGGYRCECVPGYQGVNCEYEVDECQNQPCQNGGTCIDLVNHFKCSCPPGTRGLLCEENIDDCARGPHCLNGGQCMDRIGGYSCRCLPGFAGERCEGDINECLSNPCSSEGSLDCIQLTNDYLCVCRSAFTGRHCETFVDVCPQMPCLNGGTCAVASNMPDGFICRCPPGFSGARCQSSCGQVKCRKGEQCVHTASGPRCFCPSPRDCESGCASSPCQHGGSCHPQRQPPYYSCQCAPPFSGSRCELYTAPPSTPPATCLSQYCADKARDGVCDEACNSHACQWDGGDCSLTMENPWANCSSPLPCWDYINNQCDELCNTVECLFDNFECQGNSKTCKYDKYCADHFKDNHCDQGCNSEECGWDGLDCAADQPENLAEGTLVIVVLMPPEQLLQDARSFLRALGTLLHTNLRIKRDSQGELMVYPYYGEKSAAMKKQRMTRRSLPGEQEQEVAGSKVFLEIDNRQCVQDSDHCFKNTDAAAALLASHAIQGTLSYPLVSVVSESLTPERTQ

B1: anti-NRR2: affinity matured form of Antibody D, phage library-derived human anti-Notch2 NRR monoclonal antibody (antibody, V domains shown)
VH: EVQLVESGGGLVQPGGSLRLSCAASGYTFSSYGMSWVRQAPGKGLEWVSYIYPYSGATYYADSVKGRFTISADTSKNTAYLQMNSLRAEDTAVYYCARHSGYYRISSAMDVWGQGTLVTVSA
VL: DIQMTQSPSSLSASVGDRVTITCRASQNIKRFLAWYQQKPGKAPKLLIYGASTRESGVPSRFSGSGSGTDFTLTISSLQPEDFATYYCQQYYRSPHTFGQGTKVEIKR
cell viability (LOX-IMVI melanoma cells): decrease in viability | growth over time (viable cell counts) (DB DLBCL cell line; days 2, 3 and 5): suppresses the growth | growth (cell viability relative to isotype control) (DB DLBCL cell line; three days, three-fold dilutions from 10 μg/ml): strongly inhibited | binding to Notch2 NRR proteins (Notch2 NRR): bound specifically | effects on small intestine (goblet cells, Alcian Blue) [1]: did not cause any detectable effects | binding to myc-Notch2 cells [2]: significantly bound | binding to human or mouse sequences of the other three non-targeted receptors [3]: no binding
